From patent US20230143604A1, “QW DOSING OF GIP RECEPTOR AGONIST PEPTIDE COMPOUNDS AND USES THEREOF” (TAKEDA PHARMACEUTICAL COMPANY LIMITED, priority 2020, published 2023)
Starred links: 1 amine or outer side, 2 acyl side, 3 side chain; linkers in the order of their positions; H or OH if unused. Non-standard residues stand in square brackets, D forms with d. Groups on a side chain read outwards from the residue. No end group written: not given here. *: point of attachment. C18 diacid = O=C(O)CCCCCCCCCCCCCCCCC(=O)*; C17 diacid = O=C(O)CCCCCCCCCCCCCCCC(=O)*; γGlu = O=C(O)[C@H](CCC(=O)[*:2])N[*:1]; NMeY = CN[C@@H](Cc1ccc(O)cc1)C(=O)O; Stearoyl = CCCCCCCCCCCCCCCCCC(=O)*; AEEA = NCCOCCOCC(=O)O; E∗ = not defined here; K∗ = not defined here; Aib = CC(C)(N)C(=O)O

What was measured:
[1] = biological target: T1, full-length human GIPR with an N-terminal FLAG tag, overexpressed on HEK-293T cells (human, UniProt P48546 22-466); assay: cell-based or functional assay
T1 sequence (looked up): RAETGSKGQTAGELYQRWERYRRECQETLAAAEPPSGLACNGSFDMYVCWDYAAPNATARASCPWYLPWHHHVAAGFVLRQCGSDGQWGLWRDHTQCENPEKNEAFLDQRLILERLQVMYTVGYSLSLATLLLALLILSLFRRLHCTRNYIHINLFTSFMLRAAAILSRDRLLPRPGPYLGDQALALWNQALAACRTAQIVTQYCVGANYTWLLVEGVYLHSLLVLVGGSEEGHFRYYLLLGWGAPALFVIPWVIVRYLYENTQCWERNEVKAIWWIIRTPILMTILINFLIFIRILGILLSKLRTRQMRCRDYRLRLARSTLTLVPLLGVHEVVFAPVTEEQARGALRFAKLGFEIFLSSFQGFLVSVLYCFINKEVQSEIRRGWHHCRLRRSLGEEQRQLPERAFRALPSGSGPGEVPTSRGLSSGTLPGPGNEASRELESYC

[2] = biological target: full-length human GLP-1R with an N-terminal FLAG tag, overexpressed on HEK-293T cells (human, UniProt P43220 24-463); assay: cell-based or functional assay

B1: Compound No. 208 (peptide)
peptide: [NMeY][Aib]EGTFISDYSI[Aib]LDR[Aib]AQ[Aib]K([AEEA-AEEA-γGlu-C18 diacid])FVNWLLAQRG-OH
- Human GIPR cAMP EC50, HEK293T [1]: 0.0003 nM
- Human GLP1R cAMP EC50, HEK293T [2]: 9.33 nM

B2: Compound No. 204 (peptide)
peptide: [NMeY][Aib]EGTFISDYSI[Aib]LDR[Aib]AQ[Aib]K([AEEA-AEEA-γGlu-γGlu-C18 diacid])FVNWLLAQRG-NH2
- Human GIPR cAMP EC50, HEK293T [1]: 0.0003 nM
- Human GLP1R cAMP EC50, HEK293T [2]: 6.61 nM

B3: Compound No. 183 (peptide)
peptide: Me-Y[Aib]EGTFISDYSIALDR[E∗]HQ[K∗]NFVNWLLAQK([AEEA-AEEA-γGlu-C18 diacid])PSSGAPPPS-NH2
modifications: not fully specified (residue 1); reading uncertain; also: E* at 17 and K* at 20 marked, meaning not given here
- Human GIPR cAMP EC50, HEK293T [1]: 0.0007 nM
- Human GLP1R cAMP EC50, HEK293T [2]: 162 nM

B4: Compound No. 176 (peptide)
peptide: Me-Y[Aib]EGTFISDYSIALDKAAQ[Aib]K([AEEA-AEEA-γGlu-γGlu-C18 diacid])FVNWLLAQRG-OH
- Human GIPR cAMP EC50, HEK293T [1]: 0.0003 nM
- Human GLP1R cAMP EC50, HEK293T [2]: 40.7 nM

B5: Compound No. 210 (peptide)
peptide: [NMeY][Aib]EGTFISDYSI[Aib]LDR[Aib]AQ[Aib]K([G5-γGlu-γGlu-C18 diacid])FVNWLLAQRG-OH
- Human GIPR cAMP EC50, HEK293T [1]: 0.0003 nM
- Human GLP1R cAMP EC50, HEK293T [2]: 10.7 nM

B6: Compound No. 218 (peptide)
peptide: [NMeY]AEGTFISDYSI[Aib]LDR[Aib]AQ[Aib]K([AEEA-AEEA-γGlu-γGlu-C18 diacid])FVNWLLAQRG-OH
- Human GIPR cAMP EC50, HEK293T [1]: 0.0005 nM
- Human GLP1R cAMP EC50, HEK293T [2]: 38 nM

B7: Compound No. 185 (peptide)
peptide: YXEGTFISDYSIALDRXHQXNFVNELLKQXPSSGAPPPS
modifications: N-terminal Me (Me-Tyr 1); Aib at 2, 17, 20; E* at 25 and K* at 28 (mark * as printed, not explained); Km at 30 = Lys(2OEGgE-C18DA); C-terminus NH2
- Human GIPR cAMP EC50, HEK293T [1]: 0.001 nM
- Human GLP1R cAMP EC50, HEK293T [2]: 1000 nM

B8: Compound No. 206 (peptide)
peptide: H-Y[Aib]EGTFISDYSIALDRAAQ[Aib]K([AEEA-AEEA-γGlu-γGlu-C18 diacid])FVEWLLAQRG-OH
- Human GIPR cAMP EC50, HEK293T [1]: 0.0004 nM
- Human GLP1R cAMP EC50, HEK293T [2]: 26.3 nM

B9: Compound No. 219 (peptide)
peptide: [NMeY][Aib]EGTFISDYSI[Aib]LDR[Aib]AQ[Aib]K([AEEA-AEEA-C18 diacid])FVNWLLAQRG-OH
- Human GIPR cAMP EC50, HEK293T [1]: 0.0008 nM
- Human GLP1R cAMP EC50, HEK293T [2]: 17.4 nM

B10: Compound No. 202 (peptide)
peptide: [NMeY][Aib]EGTFISDYSI[Aib]LDR[Aib]AQ[Aib]K([AEEA-AEEA-γGlu-γGlu-Stearoyl])FVNWLLAQRG-OH
- Human GIPR cAMP EC50, HEK293T [1]: 0.0042 nM
- Human GLP1R cAMP EC50, HEK293T [2]: 2.51 nM

B11: Compound No. 182 (peptide)
peptide: Me-Y[Aib]EGTFISDYSIALDR[Aib]HQ[E∗]NF[K∗]NWLLAQK([AEEA-AEEA-γGlu-C18 diacid])PSSGAPPPS-NH2
modifications: not fully specified (residue 1); reading uncertain; also: E* at 20 and K* at 23 marked, meaning not given here
- Human GIPR cAMP EC50, HEK293T [1]: 0.0525 nM
- Human GLP1R cAMP EC50, HEK293T [2]: 214 nM

B12: Compound No. 179 (peptide)
peptide: YXEGTFISDYSIAXDRIAQRNFVEWLLAQSPSSGAPPPS
modifications: N-terminal Me (Me-Tyr 1); Aib at 2; Km at 14 = Lys(G5-C18DA); C-terminus OH
- Human GIPR cAMP EC50, HEK293T [1]: 0.0008 nM
- Human GLP1R cAMP EC50, HEK293T [2]: 2.88 nM

B13: Compound No. 216 (peptide)
peptide: [NMeY][Aib]EGTFISDYSIALDRAAQAK([AEEA-AEEA-γGlu-γGlu-C18 diacid])FVNWLLAQRG-OH
- Human GIPR cAMP EC50, HEK293T [1]: 0.0005 nM
- Human GLP1R cAMP EC50, HEK293T [2]: 79.4 nM

B14: Compound No. 201 (peptide)
peptide: [NMeY][Aib]EGTFISDYSI[Aib]LDR[Aib]HQ[Aib]K([AEEA-AEEA-γGlu-γGlu-C18 diacid])FVNWLLAQRG-OH
- Human GIPR cAMP EC50, HEK293T [1]: 0.0009 nM
- Human GLP1R cAMP EC50, HEK293T [2]: 61.7 nM

B15: Compound No. 200 (peptide)
peptide: [NMeY][Aib]EGTFISDYSIALDR[Aib]AQ[Aib]K([AEEA-AEEA-γGlu-γGlu-C17 diacid])FVNWLLAQKG-OH
- Human GIPR cAMP EC50, HEK293T [1]: 0.0006 nM
- Human GLP1R cAMP EC50, HEK293T [2]: 77.6 nM

B16: Compound No. 187 (peptide)
peptide: Y[Aib]EGTFISDYSIAK([AEEA-AEEA-γGlu-C18 diacid])DKIHQQDFVNWLLAQKGKKNDWKHNITQ-OH
- Human GIPR cAMP EC50, HEK293T [1]: 0.0032 nM
- Human GLP1R cAMP EC50, HEK293T [2]: 562 nM

B17: Compound No. 177 (peptide)
peptide: Me-Y[Aib]EGTFISDYSIALDRIAQQK([AEEA-AEEA-γGlu-γGlu-C18 diacid])FVNWLLAQSPSSGAPPPS-OH
- Human GIPR cAMP EC50, HEK293T [1]: 0.0003 nM
- Human GLP1R cAMP EC50, HEK293T [2]: 100 nM

B18: Compound No. 214 (peptide)
peptide: [NMeY][Aib]EGTFISDYSI[Aib]LDRAAQ[Aib]K([AEEA-AEEA-γGlu-γGlu-C18 diacid])FVNWLLAQRG-OH
- Human GIPR cAMP EC50, HEK293T [1]: 0.0014 nM
- Human GLP1R cAMP EC50, HEK293T [2]: 28.8 nM

B19: Compound No. 180 (peptide)
peptide: YXEGTFISDYSIAXDRIAQRNFVEWLLAQSPG
modifications: N-terminal Me (Me-Tyr 1); Aib at 2; Km at 14 = Lys(G5-C18DA); C-terminus OH
- Human GIPR cAMP EC50, HEK293T [1]: 0.0009 nM
- Human GLP1R cAMP EC50, HEK293T [2]: 5.75 nM

B20: Compound No. 203 (peptide)
peptide: [NMeY][Aib]EGTFISDYSIALDR[Aib]AQ[Aib]K([AEEA-AEEA-γGlu-γGlu-Stearoyl])FVNWLLAQKG-OH
- Human GIPR cAMP EC50, HEK293T [1]: 0.0013 nM
- Human GLP1R cAMP EC50, HEK293T [2]: 4.17 nM

B21: Compound No. 212 (peptide)
peptide: [NMeY][Aib]EGTFISDYSI[Aib]LDR[Aib]AA[Aib]K([AEEA-AEEA-γGlu-γGlu-C18 diacid])FVNWLLAQRG-OH
- Human GIPR cAMP EC50, HEK293T [1]: 0.0003 nM
- Human GLP1R cAMP EC50, HEK293T [2]: 42.7 nM

B22: Compound No. 178 (peptide)
peptide: Me-Y[Aib]EGTFISDYSIALDRAAQQK([AEEA-AEEA-γGlu-γGlu-C18 diacid])FVNWLLAQSPG-OH
- Human GIPR cAMP EC50, HEK293T [1]: 0.0006 nM
- Human GLP1R cAMP EC50, HEK293T [2]: 186 nM

B23: Compound No. 217 (peptide)
peptide: [NMeY][dA]EGTFISDYSI[Aib]LDR[Aib]AQ[Aib]K([AEEA-AEEA-γGlu-γGlu-C18 diacid])FVNWLLAQRG-OH
- Human GIPR cAMP EC50, HEK293T [1]: 0.0006 nM
- Human GLP1R cAMP EC50, HEK293T [2]: 135 nM

B24: Compound No. 192 (peptide)
peptide: [NMeY][Aib]EGTFISDYSIAK([AEEA-AEEA-γGlu-γGlu-C17 diacid])DR[Aib]AQ[Aib]NFVNWLLAQS-OH
- Human GIPR cAMP EC50, HEK293T [1]: 0.0002 nM
- Human GLP1R cAMP EC50, HEK293T [2]: 178 nM

B25: Compound No. 186 (peptide)
peptide: [NMeY][Aib]EGTFISDYSIALDR[Aib]HQ[Aib]NFVNWK([AEEA-AEEA-γGlu-C18 diacid])LAQR-NH2
- Human GIPR cAMP EC50, HEK293T [1]: 0.0003 nM
- Human GLP1R cAMP EC50, HEK293T [2]: 1000 nM

B26: Compound No. 191 (peptide)
peptide: [NMeY][Aib]EGTFISDYSIALDR[Aib]HQQNFVNWLLAQK([AEEA-AEEA-γGlu-C18 diacid])
- Human GIPR cAMP EC50, HEK293T [1]: 0.0032 nM
- Human GLP1R cAMP EC50, HEK293T [2]: 97.7 nM

B27: Compound No. 205 (peptide)
peptide: [NMeY]GEGTFISDYSI[Aib]LDR[Aib]AQ[Aib]K([AEEA-AEEA-γGlu-γGlu-C18 diacid])FVNWLLAQRG-OH
- Human GIPR cAMP EC50, HEK293T [1]: 0.0008 nM
- Human GLP1R cAMP EC50, HEK293T [2]: 33.1 nM

B28: Compound No. 207 (peptide)
peptide: [NMeY][Aib]EGTFISDYSI[Aib]LDR[Aib]AQ[Aib]K([AEEA-γGlu-γGlu-C18 diacid])FVNWLLAQRG-OH
- Human GIPR cAMP EC50, HEK293T [1]: 0.0004 nM
- Human GLP1R cAMP EC50, HEK293T [2]: 36.3 nM

B29: Compound No. 215 (peptide)
peptide: [NMeY][Aib]EGTFISDYSI[Aib]LDR[Aib]AQAK([AEEA-AEEA-γGlu-γGlu-C18 diacid])FVNWLLAQRG-OH
- Human GIPR cAMP EC50, HEK293T [1]: 0.0005 nM
- Human GLP1R cAMP EC50, HEK293T [2]: 61.7 nM

B30: Compound No. 188 (peptide)
peptide: Y[Aib]EGTFISDYSIAMDKK([AEEA-AEEA-γGlu-C18 diacid])HQQDFVNWLLAQKGKKNDWKHNITQ-OH
- Human GIPR cAMP EC50, HEK293T [1]: 0.0019 nM
- Human GLP1R cAMP EC50, HEK293T [2]: 132 nM

B31: Compound No. 190 (peptide)
peptide: [NMeY][Aib]EGTFISDYSIALDRIHQQNFVNWLLAQK([AEEA-AEEA-γGlu-C18 diacid])PSSGAPPPS-NH2
- Human GIPR cAMP EC50, HEK293T [1]: 0.0005 nM
- Human GLP1R cAMP EC50, HEK293T [2]: 97.7 nM
